Legend:
Assay in all cases: IP/MS, LZTR1 wild type-FLAG, U87
RAPH1 = target: T1, RAPH1 (human, UniProt Q70E73 1-1250, limits assumed)
T1 sequence (looked up): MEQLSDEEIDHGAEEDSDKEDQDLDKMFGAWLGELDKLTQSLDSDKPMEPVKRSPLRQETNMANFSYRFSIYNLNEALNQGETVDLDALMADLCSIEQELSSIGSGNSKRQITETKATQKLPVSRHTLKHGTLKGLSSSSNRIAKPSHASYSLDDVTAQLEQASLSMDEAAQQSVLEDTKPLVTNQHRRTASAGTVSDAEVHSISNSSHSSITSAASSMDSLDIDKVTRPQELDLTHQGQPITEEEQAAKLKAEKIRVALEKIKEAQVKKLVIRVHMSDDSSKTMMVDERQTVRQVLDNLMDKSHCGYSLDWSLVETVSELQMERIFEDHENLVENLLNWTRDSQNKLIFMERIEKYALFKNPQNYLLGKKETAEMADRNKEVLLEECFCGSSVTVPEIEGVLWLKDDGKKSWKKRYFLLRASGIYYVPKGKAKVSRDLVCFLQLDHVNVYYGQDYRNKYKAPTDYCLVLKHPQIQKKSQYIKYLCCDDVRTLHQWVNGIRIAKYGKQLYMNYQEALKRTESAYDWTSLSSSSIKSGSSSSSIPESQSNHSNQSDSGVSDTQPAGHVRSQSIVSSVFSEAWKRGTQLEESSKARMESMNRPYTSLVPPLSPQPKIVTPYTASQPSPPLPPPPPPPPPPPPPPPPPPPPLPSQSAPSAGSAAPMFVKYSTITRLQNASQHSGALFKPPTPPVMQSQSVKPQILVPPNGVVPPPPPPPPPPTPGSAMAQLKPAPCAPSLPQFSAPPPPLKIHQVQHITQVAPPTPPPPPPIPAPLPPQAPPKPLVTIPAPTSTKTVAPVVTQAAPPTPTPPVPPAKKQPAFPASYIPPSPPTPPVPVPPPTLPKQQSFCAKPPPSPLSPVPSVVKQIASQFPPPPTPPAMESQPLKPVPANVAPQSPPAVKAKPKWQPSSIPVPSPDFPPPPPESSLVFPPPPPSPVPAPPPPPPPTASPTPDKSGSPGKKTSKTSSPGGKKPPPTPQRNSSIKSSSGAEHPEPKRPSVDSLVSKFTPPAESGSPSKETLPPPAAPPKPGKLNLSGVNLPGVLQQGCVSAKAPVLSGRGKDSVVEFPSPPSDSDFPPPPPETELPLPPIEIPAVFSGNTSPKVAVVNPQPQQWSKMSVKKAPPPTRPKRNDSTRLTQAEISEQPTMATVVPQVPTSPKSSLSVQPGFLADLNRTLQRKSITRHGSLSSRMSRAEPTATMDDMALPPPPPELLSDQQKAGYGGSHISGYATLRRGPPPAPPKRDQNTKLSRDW
Summary of the method: (§1)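 Extracted peptides in 3% acetonitrile/0.1% formic acid ran on a 50 cm C18 column into an Orbitrap Fusion, with MaxQuant identification and spectral counting.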

PTPN23 = PTPN23 (human, UniProt Q9H3S7 1-1636)
Chain of PTPN23 (Q9H3S7 whole entry): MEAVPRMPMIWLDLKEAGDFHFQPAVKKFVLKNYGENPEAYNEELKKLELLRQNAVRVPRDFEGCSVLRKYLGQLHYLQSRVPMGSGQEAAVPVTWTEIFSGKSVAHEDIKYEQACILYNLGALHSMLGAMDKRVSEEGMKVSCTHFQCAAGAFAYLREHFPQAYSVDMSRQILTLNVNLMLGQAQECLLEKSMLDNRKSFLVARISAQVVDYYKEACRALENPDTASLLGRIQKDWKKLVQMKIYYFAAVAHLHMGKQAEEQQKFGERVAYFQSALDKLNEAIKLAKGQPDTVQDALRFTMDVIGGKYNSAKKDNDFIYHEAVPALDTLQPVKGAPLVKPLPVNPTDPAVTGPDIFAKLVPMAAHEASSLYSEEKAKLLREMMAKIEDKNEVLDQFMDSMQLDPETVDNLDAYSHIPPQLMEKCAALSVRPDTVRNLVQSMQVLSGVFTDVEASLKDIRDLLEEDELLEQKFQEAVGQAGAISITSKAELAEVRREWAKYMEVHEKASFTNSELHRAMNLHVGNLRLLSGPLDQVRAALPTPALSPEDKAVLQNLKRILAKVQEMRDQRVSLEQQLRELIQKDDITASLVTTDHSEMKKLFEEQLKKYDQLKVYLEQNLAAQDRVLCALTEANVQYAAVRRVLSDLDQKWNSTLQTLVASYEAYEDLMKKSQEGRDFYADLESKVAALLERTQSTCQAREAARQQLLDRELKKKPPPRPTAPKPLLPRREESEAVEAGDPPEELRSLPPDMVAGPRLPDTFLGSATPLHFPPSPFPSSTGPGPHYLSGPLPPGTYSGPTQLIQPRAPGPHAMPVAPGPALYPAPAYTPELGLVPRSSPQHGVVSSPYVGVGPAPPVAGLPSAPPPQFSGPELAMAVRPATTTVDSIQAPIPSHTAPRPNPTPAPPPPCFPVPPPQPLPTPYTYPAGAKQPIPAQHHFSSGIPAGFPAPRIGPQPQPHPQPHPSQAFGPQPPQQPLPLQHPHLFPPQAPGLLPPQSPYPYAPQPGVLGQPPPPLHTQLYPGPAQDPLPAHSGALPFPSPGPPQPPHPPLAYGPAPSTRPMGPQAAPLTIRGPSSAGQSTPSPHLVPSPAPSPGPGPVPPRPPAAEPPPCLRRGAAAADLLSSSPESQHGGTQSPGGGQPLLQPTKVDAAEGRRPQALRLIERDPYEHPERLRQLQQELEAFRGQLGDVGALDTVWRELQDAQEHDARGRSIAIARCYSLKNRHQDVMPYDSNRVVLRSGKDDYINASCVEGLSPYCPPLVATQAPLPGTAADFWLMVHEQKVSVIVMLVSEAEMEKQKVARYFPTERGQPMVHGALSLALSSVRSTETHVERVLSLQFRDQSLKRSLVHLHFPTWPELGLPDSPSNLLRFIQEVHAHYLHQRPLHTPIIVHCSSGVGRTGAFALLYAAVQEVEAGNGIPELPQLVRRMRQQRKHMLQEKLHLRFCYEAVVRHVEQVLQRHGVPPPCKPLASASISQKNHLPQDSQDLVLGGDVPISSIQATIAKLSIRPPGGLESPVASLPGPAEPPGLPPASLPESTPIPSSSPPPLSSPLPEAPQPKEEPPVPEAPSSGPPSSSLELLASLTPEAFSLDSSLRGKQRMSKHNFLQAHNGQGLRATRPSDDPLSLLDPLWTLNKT
Summary of the method: as §1

BRCA2 = BRCA2 (human, UniProt P51587 1-3418)
Chain of BRCA2 (P51587 whole entry): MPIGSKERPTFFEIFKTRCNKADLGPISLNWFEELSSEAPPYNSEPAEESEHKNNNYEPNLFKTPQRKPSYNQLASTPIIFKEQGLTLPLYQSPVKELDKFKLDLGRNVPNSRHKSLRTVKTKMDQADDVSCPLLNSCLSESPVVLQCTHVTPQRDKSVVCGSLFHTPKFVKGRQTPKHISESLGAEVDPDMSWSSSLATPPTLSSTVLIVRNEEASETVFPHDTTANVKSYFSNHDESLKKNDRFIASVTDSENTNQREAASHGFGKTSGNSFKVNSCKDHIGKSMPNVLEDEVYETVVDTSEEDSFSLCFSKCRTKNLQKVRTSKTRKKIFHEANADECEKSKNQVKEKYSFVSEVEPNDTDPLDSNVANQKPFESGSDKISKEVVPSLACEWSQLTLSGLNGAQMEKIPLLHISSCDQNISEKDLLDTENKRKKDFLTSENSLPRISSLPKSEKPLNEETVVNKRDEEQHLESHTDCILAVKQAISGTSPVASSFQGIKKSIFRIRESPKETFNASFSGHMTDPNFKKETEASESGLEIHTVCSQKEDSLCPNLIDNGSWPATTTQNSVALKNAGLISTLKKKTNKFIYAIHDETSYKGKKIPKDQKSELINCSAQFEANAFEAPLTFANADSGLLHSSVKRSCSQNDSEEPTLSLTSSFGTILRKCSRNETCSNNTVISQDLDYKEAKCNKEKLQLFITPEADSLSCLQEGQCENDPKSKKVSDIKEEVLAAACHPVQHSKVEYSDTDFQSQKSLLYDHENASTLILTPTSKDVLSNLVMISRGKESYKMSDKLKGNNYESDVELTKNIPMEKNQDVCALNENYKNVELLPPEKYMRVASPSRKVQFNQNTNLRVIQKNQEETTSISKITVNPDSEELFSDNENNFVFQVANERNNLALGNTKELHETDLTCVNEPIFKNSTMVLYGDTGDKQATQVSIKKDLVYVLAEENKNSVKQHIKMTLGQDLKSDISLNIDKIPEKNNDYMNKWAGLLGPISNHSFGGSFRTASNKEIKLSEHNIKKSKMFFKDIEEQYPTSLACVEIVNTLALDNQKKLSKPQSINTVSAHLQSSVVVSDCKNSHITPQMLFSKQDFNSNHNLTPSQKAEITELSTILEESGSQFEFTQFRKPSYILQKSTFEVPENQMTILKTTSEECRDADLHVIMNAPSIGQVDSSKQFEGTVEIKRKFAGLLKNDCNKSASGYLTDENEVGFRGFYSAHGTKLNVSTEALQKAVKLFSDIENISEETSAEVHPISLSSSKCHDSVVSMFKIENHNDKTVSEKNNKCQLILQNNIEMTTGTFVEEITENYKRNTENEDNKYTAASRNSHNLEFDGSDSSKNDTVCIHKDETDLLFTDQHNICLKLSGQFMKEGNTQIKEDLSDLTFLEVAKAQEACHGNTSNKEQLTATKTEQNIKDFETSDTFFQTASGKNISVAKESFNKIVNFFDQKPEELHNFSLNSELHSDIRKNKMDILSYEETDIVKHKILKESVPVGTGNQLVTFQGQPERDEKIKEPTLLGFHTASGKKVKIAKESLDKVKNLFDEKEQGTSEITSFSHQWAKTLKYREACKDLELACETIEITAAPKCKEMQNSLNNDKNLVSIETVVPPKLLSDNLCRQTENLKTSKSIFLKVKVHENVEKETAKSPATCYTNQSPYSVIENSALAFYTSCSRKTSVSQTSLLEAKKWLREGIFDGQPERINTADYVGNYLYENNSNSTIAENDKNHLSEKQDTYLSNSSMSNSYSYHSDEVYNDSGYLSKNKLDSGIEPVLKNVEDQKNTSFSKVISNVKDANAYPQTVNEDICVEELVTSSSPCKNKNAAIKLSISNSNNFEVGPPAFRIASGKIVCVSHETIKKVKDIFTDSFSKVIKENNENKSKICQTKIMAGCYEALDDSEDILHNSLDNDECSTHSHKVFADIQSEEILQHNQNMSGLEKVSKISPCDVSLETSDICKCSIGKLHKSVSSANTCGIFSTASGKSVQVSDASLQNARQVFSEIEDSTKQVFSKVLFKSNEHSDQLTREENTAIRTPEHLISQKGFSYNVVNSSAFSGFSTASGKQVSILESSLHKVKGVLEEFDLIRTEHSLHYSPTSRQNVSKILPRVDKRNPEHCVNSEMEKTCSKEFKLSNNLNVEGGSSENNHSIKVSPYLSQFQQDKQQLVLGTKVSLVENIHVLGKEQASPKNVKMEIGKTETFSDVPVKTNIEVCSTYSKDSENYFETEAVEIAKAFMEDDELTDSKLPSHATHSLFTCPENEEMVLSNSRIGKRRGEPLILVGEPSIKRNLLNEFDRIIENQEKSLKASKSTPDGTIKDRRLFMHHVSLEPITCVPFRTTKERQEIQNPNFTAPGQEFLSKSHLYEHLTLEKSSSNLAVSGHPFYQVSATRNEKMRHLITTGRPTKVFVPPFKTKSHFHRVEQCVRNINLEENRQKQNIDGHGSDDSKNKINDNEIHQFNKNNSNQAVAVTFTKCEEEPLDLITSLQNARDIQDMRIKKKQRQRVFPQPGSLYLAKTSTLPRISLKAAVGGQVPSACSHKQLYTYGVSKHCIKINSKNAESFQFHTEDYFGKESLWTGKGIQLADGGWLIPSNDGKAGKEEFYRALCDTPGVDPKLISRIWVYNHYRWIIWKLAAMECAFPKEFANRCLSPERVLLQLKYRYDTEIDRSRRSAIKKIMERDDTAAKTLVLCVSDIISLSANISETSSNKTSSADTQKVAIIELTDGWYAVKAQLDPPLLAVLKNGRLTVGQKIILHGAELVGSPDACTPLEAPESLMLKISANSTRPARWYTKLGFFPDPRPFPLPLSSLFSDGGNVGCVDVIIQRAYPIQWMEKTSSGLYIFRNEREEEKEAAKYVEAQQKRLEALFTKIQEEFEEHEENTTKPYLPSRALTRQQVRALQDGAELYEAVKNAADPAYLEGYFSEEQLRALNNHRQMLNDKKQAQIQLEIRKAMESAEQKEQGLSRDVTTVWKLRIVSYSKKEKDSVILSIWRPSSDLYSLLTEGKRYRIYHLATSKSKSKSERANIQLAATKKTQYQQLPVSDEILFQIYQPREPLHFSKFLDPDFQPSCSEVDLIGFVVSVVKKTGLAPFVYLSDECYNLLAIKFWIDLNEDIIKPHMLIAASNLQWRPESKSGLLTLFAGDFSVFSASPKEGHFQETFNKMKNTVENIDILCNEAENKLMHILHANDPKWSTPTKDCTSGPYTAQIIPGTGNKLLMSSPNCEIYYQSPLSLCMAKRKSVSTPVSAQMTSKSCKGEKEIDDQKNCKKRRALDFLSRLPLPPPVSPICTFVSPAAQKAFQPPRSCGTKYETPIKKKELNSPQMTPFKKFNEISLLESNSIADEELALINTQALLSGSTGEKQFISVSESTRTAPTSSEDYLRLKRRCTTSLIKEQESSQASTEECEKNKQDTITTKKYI
Summary of the method: as §1

binding result (RAPH1): binds
binding result (PTPN23): binds
binding result (BRCA2): binds
B1: LZTR1-FLAG (other, human, UniProt Q8N653 1-840, looked up)
chain: MAGPGSTGGQIGAAALAGGARSKVAPSVDFDHSCSDSVEYLTLNFGPFETVHRWRRLPPCDEFVGARRSKHTVVAYKDAIYVFGGDNGKTMLNDLLRFDVKDCSWCRAFTTGTPPAPRYHHSAVVYGSSMFVFGGYTGDIYSNSNLKNKNDLFEYKFATGQWTEWKIEGRLPVARSAHGATVYSDKLWIFAGYDGNARLNDMWTIGLQDRELTCWEEVAQSGEIPPSCCNFPVAVCRDKMFVFSGQSGAKITNNLFQFEFKDKTWTRIPTEHLLRGSPPPPQRRYGHTMVAFDRHLYVFGGAADNTLPNELHCYDVDFQTWEVVQPSSDSEVGGAEVPERACASEEVPTLTYEERVGFKKSRDVFGLDFGTTSAKQPTQPASELPSGRLFHAAAVISDAMYIFGGTVDNNIRSGEMYRFQFSCYPKCTLHEDYGRLWESRQFCDVEFVLGEKEECVQGHVAIVTARSRWLRRKITQARERLAQKLEQEAAPVPREAPGVAAGGARPPLLHVAIREAEARPFEVLMQFLYTDKIKYPRKGHVEDVLLIMDVYKLALSFQLCRLEQLCRQYIEASVDLQNVLVVCESAARLQLSQLKEHCLNFVVKESHFNQVIMMKEFERLSSPLIVEIVRRKQQPPPRTPLDQPVDIGTSLIQDMKAYLEGAGAEFCDITLLLDGHPRPAHKAILAARSSYFEAMFRSFMPEDGQVNISIGEMVPSRQAFESMLRYIYYGEVNMPPEDSLYLFAAPYYYGFYNNRLQAYCKQNLEMNVTVQNVLQILEAADKTQALDMKRHCLHIIVHQFTKVSKLPTLRSLSQQLLLDIIDSLASHISDKQCAELGADI
notes: Expressed in HEK 293T, HeLa or U87 cells; used as cell lysate; also called LZTR1 wild type-FLAG; LZTR1 WT; not shown: FLAG tag at the C-terminus

Source: US20250262210A1 (TRUSTEES OF COLUMBIA UNIVERSITY IN THE CITY OF NEW YORK, published 2025)
